Measurements published in patent US20150376619, “APTAMERS THAT BIND CD271” (VIVONICS, INC., published 2015).

Molecular target: T1, CD271 (NGFR, p75NTR)/Fc chimera (Homo sapiens, UniProt P08138 P08138:29-250)
T1 chain: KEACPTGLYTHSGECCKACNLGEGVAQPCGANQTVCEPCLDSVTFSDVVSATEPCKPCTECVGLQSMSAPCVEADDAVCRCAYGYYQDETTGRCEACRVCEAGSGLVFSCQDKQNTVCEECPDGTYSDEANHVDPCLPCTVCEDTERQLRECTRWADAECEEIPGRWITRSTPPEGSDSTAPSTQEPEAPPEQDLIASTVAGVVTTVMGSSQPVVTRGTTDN
Test: size exclusion HPLC, 0.01 M PBS pH 7.4, room temperature, aptamer to protein 5:1; complex elutes at 21.2 min
Conditions: tags: human IgG1 Fc chimera, Sigma-Aldrich N8898 (lyophilized with PBS salts and BSA); chain copies: 2; label: biotin

B1: 1391-Motif (ssDNA)
DNA: TACGACTCACTATAGGGATCCAAGAAAGAAAAAGGAGAAAGGGGGGGGGGAATTCCCTTTAGTGAGGGTT
modifications: biotinylated for SPR
B1: binds.
